The RNAGym collection of RNA variant scans (doi:10.1073/pnas.2313332121)
Variants at the floor of the assay were thinned out.

B1: TPR 5TU (parent)
chain: GGAUCUUCUCGAUCUAACAAAAAAGACAAAUCUGCCACAAAGCUUGAGAGCAUCUUCGGAUGCAGAGGCGGCAGCCUUCGGUGGCGCGAUAGCGCCAACGUUCUCAACUAUGACACGCAAAACGCGUGCUCCGUUGAAUGGAGUUUAUCAUG

Variants of: B1
Assay: polymerase ribozyme fitness, log enrichment relative to wild type (log ratio); higher = more active; in vitro selection for triplet polymerase activity
Procedure, shortened: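 Both subunits of a heterodimeric triplet polymerase ribozyme were given their own mutant library, built by PCR and transcribed. Each library was annealed with a biotinylated primer, the partner subunit and triplets, incubated frozen at −7 °C, and its extended constructs gel-excised, captured on streptavidin beads and amplified by RT-PCR, all in one round done in triplicate. Fitness is the logarithm of genotype enrichment relative to wild-type enrichment, with replicates averaged by inverse-variance weighting. That logarithm is base 2, and Illumina-sequenced genotypes needed ≥10 input reads and ≥1 read per output.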

Variant | polymerase ribozyme fitness (log ratio)
GGGUCUUCUCGAUCUAACAAAGACGACAAAUCUGCCACAAAGCUUGAGUGCAUCUUCGGAUGCAGAGGCGGCAGCAUUCGGUGGCGCGAUAGCGCCAACGUUCUCAACUAUGACACGCAAAACGCGUGCUGCGUUGAAUGGAGUUUAUCAUG [A3G A22G A24C A49U C76A C131G] | ≤ -4.2
GGAUCUUCUCGAUCUAACAAGAAAGACAAAUCUGCCACACAGCUUGAGAGCAUCUUCGGAUGCAGAGGCGGCAGCCUUCGGUGGCGCGAUAGCGCCAACGUUCUCAACUAUGACACGCAAAACGCGUGCUCCGUUGAAUGGAGUUUAUCAUG [A21G A40C] | 0.803
GGAUCUUCUCGAUCUAACAAAAAAGACAAAUCUGCCAUAAAGCUUGAGAGCAUCUUCCGAUGCAGAGGCGGCAGCCUUCAGUGGCGCGAUAGCGACAACGUUCUCAACUAUGAGACGCAAAACGCGUGCUCCGUUGAAUGGAGUUUAUCAUG [C38U G58C G80A C95A C114G] | -3.62
GGAUCUUCUCGAUCUAACAAGAAAGACAAAGCUGCCAUAAAGCUUGAGAGCAUCUUCGGAUGCAGAGGCGGCCGCCUUCGGUGGCGAGAUAGCGCUAACGUUCUCAACUAUGACACGCAAAACGCGUGCUCCGUUGAAUGGAGUUUAUCAUG [A21G U31G C38U A73C C87A C96U] | ≤ -4.2
GGAUCUUCUCGAUAUAACAAAAAAGACAAAUUUGCCACAAAGCUUGAGAGCAUCUUCGGAUGCAGAGGCGGCAGCCUUCGGUGGUGCGAUAGCGCCAUCGUUCUCAACUAGGACACGCAAAACGCGUGCUCCGUUGAAGGGAGUUUAUCAAG [C14A C32U C85U A98U U111G U139G U151A] | -4.14
GGAUCUUCUCGAUCUAACAAAAAAGACAAAUCUGCCACAAAGCUUGAGAGCAUCUUCGGAUGCAGGGGCGGCAGCCUUCGGUGGCGCGUUAGCGGCAACGUUCUCAACUAUGACAAGCAAAAAGCGUGCUCCGUUGAAUGGAGUUUAUCAUG [A66G A89U C95G C116A C123A] | ≤ -4.2
GGAUCUUCUCGAUCUAACAAAAAAGACAAAUCUGCCACAGAGCUUGAGAGCAUCUUCGGAUGCAGAGGCGGCAGCCUUCGGUGGCGUGAUAGCGCCAACGUUCUCAACUAUGACGCGCAAAACGCGUGCUCCGUUGAAUGGAGUUUAUCAUG [A40G C87U A115G] | -3.19
GGAUCUUCUCGAUCUAACAAAAAAGUCAAAUCUGCCACAAAGCUUGAGAGCAUCUUCGGAUGCAGAGGCGGCAGCCUUCGGUGGCGCGAUAGCGCCAACGUUCUCAACUAUGACAUGCAAAACGCGUGCUCCGUUGAAUGAAGUUUAUCAUG [A26U C116U G141A] | -1.75
GGAUCUUCUCGAUCUAACAAAAAAGACAAAUCUGCCACAAAGCUUGAGAGCAUCGUCGUAUGCAGAGGCGGCAGCCUUCGGUGGCGCGAUAGCGCCAACGUUCUCAACUAUGACACGCAAAACGCGCGCUCCGUUGAAUGGAGUUUAUCAUG [U55G G59U U127C] | -2.75
GGAUCUUCUCGAUCUAACAAAAAAGACAAAUCUGCCACAAAGCUUGAGAGCAUCUUCGGAUGCAGAGGCGGCAGCCUUCGGUGGCGCGAUAACGCCAACGUUCUCAACUAUGACACGCAAAACGCGUGCUCCGUUGAAUGUAGUUUAUCAUG [G92A G141U] | -1.8
GGAUCUUCUCGAUCUAACAAAAAAGAGAAAUCUGCCACAAAGCUUGAGAGCAUCUUCGGAUGCAGAGGCGGCAGCUUUCGGUAGGGCGAUAGCGCCAACGUUCUCAUCUAUGACACGCUAAACGCGUGCUCCGUUGAAUGAAGUUUAUCAUG [C27G C76U G83A C85G A107U A119U G141A] | ≤ -4.2
GGAUCUUCUCGAUCUAACAAAAAAGACAAAUCUGCCACAAAGCUUGCGAGCAUCUUCGGAUGCAGAGGGGGCAGCCUUCGGUAGCGCGAUAGCGCCAACGUUCUCAACUAUGACACGCGAAACGCGUGCUCCGUUGAAUGGAGUUCAUCAUG [A47C C69G G83A A119G U146C] | -2.18
GGAUCUUCUCGAUCUAACAAAAAAGACAAAUCUGCCACAAAGCUUGAGAGCAUCUUCGGAUGCAGAGGCGGCAGCCUUCGGUGGGGCGAUAGCGCCAACGUUCUCAACUAUGACACGCAAAGCGCGUGCUCCGUUGAAUGGAGUUUAUCAUG [C85G A122G] | -3.42
GGAUCUUCUCGAUCUAACAAAAAAGACAAAUCUGCCACAAAGCUUGAGAGCAUCUUCGUAUGCAGAGGCGGCAGCCUUCGGAGGCGCGAUAGAGCCAACGUUCUCAACUAUGACACGCAAAACGCGUGCUCCGUUGAAUGGCGUUUAUCAUG [G59U U82A C93A A142C] | ≤ -4.2
GGAUCUUCUCGAUCUAACAAAAAAGACAAAUCUGCCACAAAGCUUGAGAGCAUCUUGGGAUGCAGAGGCGGCGGCCUUCGGAGGCGCGAUAGCGCGAACGCUCUCAACUAUGACAAGCAAAACGCGUGCUCCGUUGAAUGGAGUUUAUCAUG [C57G A73G U82A C96G U101C C116A] | -3.9
GGAUCUUCUCGAUCUAACAAAAAAGACAAAUCUGCCACAAAGCUUGAGAGCAUCUUCGGAUGCAGAGGCGGCAGCCUUCGGUGGCGCGAUAGCGUCAACGUUCUCAACUAUGACACGCAAAACGUGUGCUCCGUUGAAUGGAGUUUAUCAUG [C95U C125U] | -0.278
GGAUCUUCUCGAUCUAACAAAAAAGACAAAUCUGCCACAAAGCUUGAGAGCAUCUUCGGAUGCAGAGGCGGCAGCCUUCGGUGGUGCGAUAGCGCCAACGUUCUCAUCUAUGACACGCAAAACGCGUGCUCCGUUGAGUGGGGUUUAUCAUG [C85U A107U A138G A142G] | ≤ -4.2
GGAUCUUCUCGAUCUAACAAAGAAGACAUAUCUGCCACAAAGCUUGAGAGCAUCUUCGGAUGCAGAGGCGGCAGCCUUCGGUGGCGCAAUAGCGCCAACGUUCUCAACUAUGACACUCAAAACGCGUGCUCCGUUGAAUAGAGUUUAUCAUG [A22G A29U G88A G117U G140A] | ≤ -4.2
GGAUCUUCUCGAUCUAACAAAAAAGACAAAUCUGCUACAAAGCUUGAGAGCAUCUUCGGAUGCAGGGGCGGCAGCCUUCGGUGGCGUGAUAGUGCCAACGUUCUCAACUAUGACACGCAAAACGCGUGCUCCGUAGAAUGGAGUUUAUCAUG [C36U A66G C87U C93U U135A] | ≤ -4.2
